# Tested on: full-length rat proMMP9(1-708) (SEQ ID NO:11)
# Sequence (chain, as listed by the source): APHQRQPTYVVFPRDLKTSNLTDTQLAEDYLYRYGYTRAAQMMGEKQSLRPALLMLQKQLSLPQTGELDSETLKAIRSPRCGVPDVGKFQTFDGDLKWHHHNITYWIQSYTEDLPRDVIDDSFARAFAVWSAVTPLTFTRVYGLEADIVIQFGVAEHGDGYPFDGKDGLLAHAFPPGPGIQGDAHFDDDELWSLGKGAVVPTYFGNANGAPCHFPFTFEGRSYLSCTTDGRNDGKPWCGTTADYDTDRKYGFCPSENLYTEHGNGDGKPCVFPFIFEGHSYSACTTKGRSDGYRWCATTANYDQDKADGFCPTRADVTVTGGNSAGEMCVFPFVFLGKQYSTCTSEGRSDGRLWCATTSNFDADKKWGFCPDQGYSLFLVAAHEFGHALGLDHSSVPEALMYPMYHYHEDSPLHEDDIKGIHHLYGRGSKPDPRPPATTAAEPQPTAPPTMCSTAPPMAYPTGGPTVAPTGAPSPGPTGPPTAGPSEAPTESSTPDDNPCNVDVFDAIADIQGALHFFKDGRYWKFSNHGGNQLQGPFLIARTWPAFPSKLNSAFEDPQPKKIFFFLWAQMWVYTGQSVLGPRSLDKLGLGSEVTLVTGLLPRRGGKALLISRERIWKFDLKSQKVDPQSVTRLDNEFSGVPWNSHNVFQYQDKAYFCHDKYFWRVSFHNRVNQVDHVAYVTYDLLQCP
# Chain of human catalytic MMP3, MMP3(100-265) (SEQ ID NO:8) (chain, as listed by the source): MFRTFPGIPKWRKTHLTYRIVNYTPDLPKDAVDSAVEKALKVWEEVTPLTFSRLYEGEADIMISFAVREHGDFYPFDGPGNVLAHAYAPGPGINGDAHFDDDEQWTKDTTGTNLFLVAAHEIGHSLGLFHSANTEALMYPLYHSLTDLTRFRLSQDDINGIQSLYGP
substance,measurement,value
"human catalytic MMP3, MMP3(100-265) (SEQ ID NO:8)",proteolytic conversion of proMMP9 to catalytic MMP9,full-length rat proMMP9(1-708) (SEQ ID NO:11) converted to catalytic rat MMP9 by catalytic MMP3

# From patent publication US20130040360
